Assay results from a protein production outcome set (Wang et al. 2014).

Test: label from the status in PepcDB records

| Sequence | protein production |
| --- | --- |
| MAALRYAGLDDTDSEDELPPGWEERTTKDGWVYYANHTEEKTQWEHPKTGKRKRVAGDLPYGWEQETDENGQVFFVDHINKRTTYLDPRLAFTVDDNPTKPTTRQRYDGSTTAMEILQGRDFTGKVVVVTGANSGIGFETAKSFALHGAHVILACRNMARASEAVSRILEEWQQGAATTVYCAAVPELEGLGGMYFNNCCRCMPSPEAQSEETARTLWALSERLIQERLGSQSG | not failed |
| MAAMPKPAAFWNDRFANEEYVYGEAPNRFVASAARTWLPEAGEVLLLGAGEGRNAVHLAREGHTVTAVDYAVEGLRKTERLATEAGVEVEAIQADVREWKPARAWDAVVVTFLHLPADERPGLYRLVQRCLRPGGRLVAEWFRPLEHHHHHH | failed |
| MAAMQWCGAMTRRIMMTQRTSAALNCSARYSSLSPACAAPAVSEMDLCGRGDKKTKKGKRFKGSYGNSRGKKQKMIERIKDKLELPRSTPWPLPFKLI | not failed |
| MAANDRAAAPGKSGGSAGADGLMRASLSAVAPGTSLRDGLERVLRGNTGGLIVLGSDKTVESMCTGGFVLDVEFTATRLRELCKLDGGIVLSSDLSKILRAGVQLLPDPTIPTEETGTRHRTADRVSKQVGFPVVSVSQSMRLIALYVDGQRRVLEDSAAILSRANQALATLERYKLRLDEVAGTLSALEIEDLVTVRDVSAVAQRLEMVRRIATEIAEYVVELGTDGRLLALQLDELIAGVEPERELVVRDYVPEPTAKRSRTVDEALAELDKLSHAELLELSTVARALGYTGSPETLDSAVSPRGFRLLAKVPRLPGAIIDRLVEHFGGLQKLLAASVDDLQTVDGVGEARARSVREGLSRLAESSILERYV | not failed |
| MAANGVRRALQASSSSGKILFGRSSAATSASKIGKSAGIAFGNGSSSSTRPSLRRLTFSRVPVELSAGISLIPLHSVTASALLTSLLSLSNQNWSCLSEGKFFTCVHDLCLELKLILNFCFQTRSKCSLNW | failed |
| MAANNSIEWRAVCEKFRLAQELSEIESKKDPENNPFRSKYKARDLLKEIHCSLKKIEIEEQGEAGDEADCESSQTADGEPEDGFEKTFTGDSAAGLRAARLAVLQYHLGVNHIETEELSAGELHLMVCMKLIDKCTTTRENVSLFIHVRNQLGILWAGRDEIEKAQGFLEIAETMYLVYMKEDGQPPLDLQDFFVPEGESQSFTGVLQLRSAVLRGESRSQERCRNRARAEYGDGLPAPSEDQQNSIHSGLLQLKW | failed |
| MAANVSGAKSCPANFLAAADDKLSGFQGDFLWPILVVEFLVAVASNGLALYRFSIRKQRPWHPAVVFSVQLAVSDLLCALTLPPLAAYLYPPKHWRYGEAACRLERFLFTCNLLGSVIFITCISLNRYLGIVHPFFARSHLRPKHAWAVSAAGWVLAALLAMPTLSFSHLKRPQQGAGNCSVARPEACIKCLGTADHGLAAYRAYSLVLAGLGCGLPLLLTLAAYGALGRAVLRSPGMTVAEKLRVAALVASGVALYASSYVPYHIMRVLNVDARRRWSTRCPSFADIAQATAALELGPYVGYQVMRGLMPLAFCVHPLLYMAAVPSLGCCCRHCPGYRDSWNPEDAKSTGQALPLNATAAPKPSEPQSRELSQ | failed |
| MAAPLAPWRVSAFNTAKQSENKMHDDTVARRFGFTGGLVPGVEVMAYMMHLPVARWGRDFLERGLIEARFVKPVYDGETATVTGEEQGEAITLAVESRGELCATGSASLPVRAPAVDLGAYPETAAATNRPPVGAQSFPEGHWFGTAPVNWGGAKLRDYLDEIRETDPIYRSDDLIHPGTLQRIMNRVLVDNVVLGPWIHVGSKMQLLAAARGDDVLTARAKVVANYDKKGHRFAEFDALIVANGDRPVAHCHHVAIFAPRQQAAA | failed |
| MAAPMEVAVCTDSAAPMWSCIVWELHSGANLLTYRGGQAGPRGLALLNGEYLLAAQLGKNYISAWELQRKDQLQQKIMCPGPVTCLTASPNGLYVLAGVAESIHLWEVSTGNLLVILSRHYQDVSCLQFTGDSSHFISGGKDCLVLVWSLCSVLQADPSRIPAPRHVWSHHTLPITDLHCGFGGPLARVATSSLDQTVKLWEVSSGELLLSVLFDVSIMAVTMDLAEHHMFCGGSEGSIFQVDLFTWPGQRERSFHPEQDAGKVFKGHRNQVTCLSVSTDGSVLLSGSHDETVRLWDVQSKQCIRTVALKGPVTNAAILLAPVSMLSSDFRPSLPLPHFNKHLLGAEHGDEPRHGGLTLRLGLHQQGSEPSYLDRTEQLQAVLCSTMEKSVLGGQDQLRVRVTELEDEVRNLRKINRDLFDFSTRFITRPAK | failed |
| MAAQAAAAAQAAAAAQAAAAQAAQAEAAESWYLALLGFAEHFRTSSPPKIRLCVHCLQAVFPFKPPQRIEARTHLQLGSVLYHHTKNSEQARSHLEKAWLISQQIPQFEDVKFEAASLLSELYCQENSVDAAKPLLRKAIQISQQTPYWHCRLLFQLAQLHTLEKDLVSACDLLGVGAEYARVVGSEYTRALFLLSKGMLLLMERKLQEVHPLLTLCGQIVENWQGNPIQKESLRVFFLVLQVTHYLDAGQVKSVKPCLKQLQQCIQTISTLHDDEILPSNPADLFHWLPKEHMCVLVYLVTVMHSMQAGYLEKAQKYTDKALMRLEKLKMLDCSPILSSFQVILLEHIIMCRLVTGHKATALQEISQVCQLCQQSPRLFSNHAAQLHTLLGLYCVSVNCMDNAEAQFTTALRLTNHQELWAFIVTNLASVYIREGNRHQELYSLLERINPDHSFPVSSHCLRAAAFYVRGLFSFFQGRYNEAKRFLRETLKMSNAEDLNRLTACSLVLLGHIFYVLGNHRESNNMVVPAMQLASKIPDMSVQLWSSALLRDLNKACGNAMDAHEAAQMHQNFSQQLLQDHIEACSLPEHNLITWTDGPPPVQFQAQNGPNTSLASLL | failed |
| MAARGFRAGADHLRHQFCPPLVDPHRPWTARMKLLALSGSLRADSVNTALLRALAEAAPAGVEVCFFDGLRDLPLFNPDAEERENAAVTAWRAALRGADAVVISSPEYAHGIPGAFKNALDWVVGSAEFDGKPTLLLCASARPQHAPAQLAEVLRTMGARVQGPHLLDLPGNVAAAQSALRTPAQQAEARELLAALLP | failed |
| MAASMARGVSARVLLRAAGGSWGPRAGHAAVTSRTFGSTGERRAGEDEADSPELPRDVVNVVFVDRSGKRIPVRGRVGDNVLHLAQRHGVDLEGACEASLACSTCHVYVSEAHLDLLPPPEEREDDMLDMAPLLQENSRLGCQIVLTPELEGAEFALPKITRNFYVDGHIPKPH | failed |
| MAASQTPARILVTGVAGNLGRKVVEALASTPWCTSIIGVDWVEQSMQFSPQAAQRLRWVVADLTQADGAWTALLDEVDAVIHLAAIHSTPDATWEQALASYGMTLNVLQAAATRGVRRFVFASSNHAMGAYKDQPLAGTIGPGRLIAELAPAPGTRWHNGIEEVYSLAYGTSKAMGERLCKAVAAVSGGRLSVVALRIGWALPDDNDPNDINHSGTADTPVPGSVPDEASRIALRWFRNMWLSNDDLRQLFIAAVTADPARWPAPAIVVNGVSNNTGMDWGLETGRALIGYEPQDDLYARLTQPA | failed |
| MAASSLATQPAMKLAPDDLDSITATTLGHYQQVAEDFREGTRDHDVSQNIDALLRHIQGSAPFTVLDFGCGPGRDLQAFTRLGHVAIGLDGCERFAQMAREDSGCEVWQQDFLKLDLPAERFDGIFANAVLFHIPRQELPRVLKQLHASLKDGGVLFSSNPRGDNQEGWNGPRYGAYHDLAAWQALLTDAGFVELEHYYRPAGLPREQQPWLASVWRKA | failed |
| MAASVANCCFSVLNASVKIQSSSISSPWCFVSASSLTPRASSNIKRKSSRSDSPSPILNPEKNYPGRVRDESSNPPQKMAFKAFGSPKKEKKESLSDFSRDQQTDPAKIHDASFLNAVVKVSKSNSLSSLKFTLLAFEPTRASFQVYCTHTAPDYSLPWQKQRQFTSTGSAFMIGDGKLLTNAHCVEHDTQVKVKRRGDDRKYVAKVLVRGVDCDIALLSVESEDFWKGAEPLRLGHLPRLQDSVTVVGYPLGGDTISVTKGVVSRIEVTSYAHGSSDLLGIQIDAAINPGNSGGPAFNDQGECIGVAFQVYRSEETENIGYVIPTTVVSHFLTDYERNGKYTGYPCLGVLLQKLENPALRECLKVPTNEGVLVRRVEPTSDASKVLKEGDVIVSFDDLHVGCEGTVPFRSSERIAFRYLISQKFAGDIAEIGIIRAGEHKKVQVVLRPRVHLVPYHIDGGQPSYIIVAGLVFTPLSEPLIEEECEDTIGLKLLTKARYSVARFRGEQIVILSQVLANEVNIGYEDMNNQQVLKFNGIPIRNIHHLAHLIDMCKDKYLVFEFEDNYVAVLEREASNSASLCILKDYGIPSERSADLLEPYVDPIDDTQALDQGIGDSPVSNLEIGFDGLVWA | failed |
| MAATTNFTKSMLFPFSHVSGNASLNSQRRTWPKQYKSKNGYRSLRVNGLFGGGNKDNNSEDGQSKAGIFGNMQNMYETVKKAQMVVQVEAVRVQKELAAAEFDGYCAGELVKVTLSGNQQPIRTDITEAAMELGSEKLSQLVTEAYKDAHAKSVVAMKERMSDLAQSLGMPPGLSEGMK | failed |
| MAAVGSGGYARNDAGEKLPSVMAGVPARRGQSSPPPAPPICLRRRTRLSTASEETVQNRVSLEKVLGITAQNSSGLTCDPGTGHVAYLAGCVVVILDPKENKQQHIFNTARKSLSALAFSPDGKYIVTGENGHRPAVRIWDVEEKNQVAEMLGHKYGVACVAFSPNMKHIVSMGYQHDMVLNVWDWKKDIVVASNKVSCRVIALSFSEDSSYFVTVGNRHVRFWFLEVSTETKVTSTVPLVGRSGILGELHNNIFCGVACGRGRMAGSTFCVSYSGLLCQFNEKRVLEKWINLKVSLSSCLCVSQELIFCGCTDGIVRIFQAHSLHYLANLPKPHYLGVDVAQGLEPSFLFHRKAEAVYPDTVALTFDPIHQWLSCVYKDHSIYIWDVKDINRVGKVWSELFHSSYVWNVEVYPEFEDQRACLPSGSFLTCSSDNTIRFWNLDSSPDSHWQKNIFSNLAPALQMCGRGHSRQPNTPSPGEIAS | failed |
| MAAVILESIFLKRSQQKKKTSPLNFKKRLFLLTVHKLSYYEYDFERGRRGSKKGSIDVEKITCVETVVPEKNPPPERQIPRRGEESSEMEQISIIERFPYPFQVVYDEGPLYVFSPTEELRKRWIHQLKNVIRYNSDLVQKYHPCFWIDGQYLCCSQTAKNAMGCQILENRNGSLKPGSSHRKTKKPLPPTPEEDQILKKPLPPEPAAAPVSTSELKKVVALYDYMPMNANDLQLRKGDEYFILEESNLPWWRARDKNGQEGYIPSNYVTEAEDSIEMYEWYSKHMTRSQAEQLLKQEGKEGGFIVRDSSKAGKYTVSVFAKSTGDPQGVIRHYVVCSTPQSQYYLAEKHLFSTIPELINYHQHNSAGLISRLKYPVSQQNKNAPSTAGLGYGSWEIDPKDLTFLKELGTGQFGVVKYGKWRGQYDVAIKMIKEGSMSEDEFIEEAKVMMNLSHEKLVQLYGVCTKQRPIFIITEYMANGCLLNYLREMRHRFQTQQLLEMCKDVCEAMEYLESKQFLHRDLAARNCLVNDQGVVKVSDFGLSRYVLDDEYTSSVGSKFPVRWSPPEVLMYSKFSSKSDIWAFGVLMWEIYSLGKMPYERFTNSETAEHIAQGLRLYRPHLASEKVYTIMYSCWHEKADERPTFKILLSNILDVMDEES | not failed |
| MACFSSLSTGVLDMYDLIIVGGGPSGASAGRVAGKAGISTLLIEKENFPRYKPCGGALSPYALSCLDFKLPEYLIEKDISRIRVHFRELCTEMQKDYSIALLVSRKAFDNFLLDKARETGIDIHSGEKVLDCEEGEECVEVRTSQNTYLAKFVLIAEGSEGVLKYSVRKRKDRRTEYDLALVSEIPERDKVIRKRFPNAIDMHFGIASGGYGWIFPHSEHYSVGIVGTAEHLKHPKAVMQDFLQANGFSGDFQVHSHIIPVGGIKRKTISSRILLSGDAAGFVDAFIGEGISYAIRSGQLAAENVAEIVLYNRKLSDLKEYETSCRKEFGNFLSSSLKLEKAMHRFPETSFRLALSRKEIIDKYLEEVVINRSHKDYVRWLLLNFSLSEPASKIKSIKDKNQLEHHHHHH | failed |
